# According to patent US20110104194A1 (NEW YORK UNIVERSITY, published 2011):
# T1: collagen III (human placenta) (human, UniProt P02461 154-1221)
# T1 construct: Chemicon; also called Col III
# T1 sequence: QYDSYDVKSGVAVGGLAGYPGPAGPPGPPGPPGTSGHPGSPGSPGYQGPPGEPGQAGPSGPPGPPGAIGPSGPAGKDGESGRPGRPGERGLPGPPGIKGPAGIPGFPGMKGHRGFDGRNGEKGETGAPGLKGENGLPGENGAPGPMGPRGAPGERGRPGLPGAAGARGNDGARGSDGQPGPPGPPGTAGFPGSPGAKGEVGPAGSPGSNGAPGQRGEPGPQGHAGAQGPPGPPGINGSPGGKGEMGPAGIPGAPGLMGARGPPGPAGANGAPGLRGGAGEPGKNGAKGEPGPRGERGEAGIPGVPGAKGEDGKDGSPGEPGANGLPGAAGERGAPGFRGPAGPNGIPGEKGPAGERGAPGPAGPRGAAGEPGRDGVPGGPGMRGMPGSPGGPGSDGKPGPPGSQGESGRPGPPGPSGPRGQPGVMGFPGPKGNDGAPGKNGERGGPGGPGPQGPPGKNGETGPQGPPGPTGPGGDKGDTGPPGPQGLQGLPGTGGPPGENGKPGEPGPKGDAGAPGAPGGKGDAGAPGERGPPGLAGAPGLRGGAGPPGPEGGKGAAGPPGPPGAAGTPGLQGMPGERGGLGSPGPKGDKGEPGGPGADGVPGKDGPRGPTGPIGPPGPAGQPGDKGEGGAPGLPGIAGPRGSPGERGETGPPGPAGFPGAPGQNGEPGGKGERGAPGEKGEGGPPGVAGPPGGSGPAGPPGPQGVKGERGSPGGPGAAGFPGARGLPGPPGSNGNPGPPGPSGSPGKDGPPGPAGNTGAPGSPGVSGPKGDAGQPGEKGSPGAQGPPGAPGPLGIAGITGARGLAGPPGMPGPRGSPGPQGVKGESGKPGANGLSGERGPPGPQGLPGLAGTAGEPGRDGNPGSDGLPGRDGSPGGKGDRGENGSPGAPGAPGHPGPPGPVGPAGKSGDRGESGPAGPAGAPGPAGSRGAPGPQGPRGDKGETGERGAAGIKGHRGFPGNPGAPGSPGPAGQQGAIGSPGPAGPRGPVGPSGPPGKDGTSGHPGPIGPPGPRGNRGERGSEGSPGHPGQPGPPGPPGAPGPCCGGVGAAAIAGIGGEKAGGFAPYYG
# T2: elastin (human lung) (human, UniProt P15502 27-786)
# T2 sequence: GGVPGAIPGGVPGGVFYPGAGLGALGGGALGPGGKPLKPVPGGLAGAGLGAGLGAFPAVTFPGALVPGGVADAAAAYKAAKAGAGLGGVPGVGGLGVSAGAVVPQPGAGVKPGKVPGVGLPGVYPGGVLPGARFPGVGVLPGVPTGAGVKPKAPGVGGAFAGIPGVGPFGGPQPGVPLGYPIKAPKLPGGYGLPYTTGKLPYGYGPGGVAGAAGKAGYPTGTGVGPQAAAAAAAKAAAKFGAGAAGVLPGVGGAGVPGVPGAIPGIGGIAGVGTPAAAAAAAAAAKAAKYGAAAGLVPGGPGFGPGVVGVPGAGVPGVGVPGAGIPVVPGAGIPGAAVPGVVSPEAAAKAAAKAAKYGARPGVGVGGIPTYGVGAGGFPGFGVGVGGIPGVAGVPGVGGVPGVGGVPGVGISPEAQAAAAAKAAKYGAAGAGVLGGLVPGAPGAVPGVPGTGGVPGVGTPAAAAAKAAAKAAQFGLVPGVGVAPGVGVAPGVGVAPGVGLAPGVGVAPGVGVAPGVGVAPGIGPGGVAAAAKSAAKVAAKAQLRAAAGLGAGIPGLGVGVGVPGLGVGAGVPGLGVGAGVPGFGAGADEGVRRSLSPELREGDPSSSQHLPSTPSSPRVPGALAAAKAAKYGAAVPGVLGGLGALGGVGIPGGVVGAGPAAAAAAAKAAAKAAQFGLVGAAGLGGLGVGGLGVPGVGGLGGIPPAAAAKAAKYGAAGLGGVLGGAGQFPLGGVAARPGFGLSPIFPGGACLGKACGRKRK
# T3: fibrinogen (human plasma) (human, UniProt P02671 20-629; P02675 31-491; P02679 27-437)
# T3 sequence 1: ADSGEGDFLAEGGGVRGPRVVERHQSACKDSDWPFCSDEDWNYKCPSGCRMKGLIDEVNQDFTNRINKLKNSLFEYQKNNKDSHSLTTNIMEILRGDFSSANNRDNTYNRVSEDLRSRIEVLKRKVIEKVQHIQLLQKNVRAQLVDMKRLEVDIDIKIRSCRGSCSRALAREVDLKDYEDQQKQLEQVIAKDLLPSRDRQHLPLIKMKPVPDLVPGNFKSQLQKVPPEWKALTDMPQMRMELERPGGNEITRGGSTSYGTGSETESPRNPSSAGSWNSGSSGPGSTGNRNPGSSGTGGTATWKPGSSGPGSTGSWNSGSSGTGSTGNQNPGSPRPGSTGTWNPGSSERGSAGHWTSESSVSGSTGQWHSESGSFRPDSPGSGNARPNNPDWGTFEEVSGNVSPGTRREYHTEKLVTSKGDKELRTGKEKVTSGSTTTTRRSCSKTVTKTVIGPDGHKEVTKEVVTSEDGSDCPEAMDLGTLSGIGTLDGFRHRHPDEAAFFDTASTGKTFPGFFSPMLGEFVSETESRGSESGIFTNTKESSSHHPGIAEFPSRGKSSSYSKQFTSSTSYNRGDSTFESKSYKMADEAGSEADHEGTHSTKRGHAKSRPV
# T3 sequence 2: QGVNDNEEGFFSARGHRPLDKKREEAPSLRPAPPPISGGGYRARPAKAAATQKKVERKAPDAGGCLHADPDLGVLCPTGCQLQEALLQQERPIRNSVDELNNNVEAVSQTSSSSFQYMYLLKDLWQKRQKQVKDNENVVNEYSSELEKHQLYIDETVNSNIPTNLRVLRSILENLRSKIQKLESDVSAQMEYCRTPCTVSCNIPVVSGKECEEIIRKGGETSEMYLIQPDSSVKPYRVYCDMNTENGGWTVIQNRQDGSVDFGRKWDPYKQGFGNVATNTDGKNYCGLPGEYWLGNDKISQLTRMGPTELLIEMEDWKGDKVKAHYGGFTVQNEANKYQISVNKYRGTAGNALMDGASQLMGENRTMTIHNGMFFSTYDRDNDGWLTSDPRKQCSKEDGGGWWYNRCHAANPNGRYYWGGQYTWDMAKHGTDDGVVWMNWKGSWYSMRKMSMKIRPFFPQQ
# T3 sequence 3: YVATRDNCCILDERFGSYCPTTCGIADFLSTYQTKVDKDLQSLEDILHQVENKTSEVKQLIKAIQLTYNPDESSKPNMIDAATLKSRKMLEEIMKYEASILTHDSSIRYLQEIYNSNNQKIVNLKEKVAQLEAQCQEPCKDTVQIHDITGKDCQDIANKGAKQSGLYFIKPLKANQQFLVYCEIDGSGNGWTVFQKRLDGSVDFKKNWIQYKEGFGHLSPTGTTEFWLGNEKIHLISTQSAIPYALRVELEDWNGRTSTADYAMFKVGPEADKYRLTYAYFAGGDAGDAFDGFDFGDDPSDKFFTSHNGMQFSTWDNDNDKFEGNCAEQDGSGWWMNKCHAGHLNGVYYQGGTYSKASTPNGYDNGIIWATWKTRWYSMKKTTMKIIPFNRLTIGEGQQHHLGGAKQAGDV
# B1: purified recombinant PTRP (rPTRP), GST tag cleaved (other)
# chain: MDVALGVAVTDRVARLALVDSAAPGTVIDQFVLDVAEHPVEVLTETVVGTDRSLAGENHRLVATRLCWPDQAKADELQHALQDSGVHDVAVISEAQAATALVGAAHAGSAVLLVGDETATLSVVGDPDAPPTMVAVAPVAGADATSTVDTLMARLGDQALAPGDVFLVGRSAEHTTVLADQLRAASTMRVQTPDDPTFALARGAAMAAGAATMAHPALVADATTSLPRAEAGQSGSEGEQLAYSQASDYELLPVDEYEEHDEYGAAADRSAPLSRRSLLIGNAVVAFAVIGFASLAVAVAVTIRPTAASKPVEGHQNAQPGKFMPLLPTQQQAPVPPPPPDDPTAGFQGGTIPAVQNVVPRPGTSPGVGGTPASPAPEAPAVPGVVPAPVPIPVPIIIPPFPGWQPGMPTIPTAPPTTPVTTSATTPPTTPPTTPVTTPPTTPPTTPVTTPPTTPPTTPVTTPPTTVAPTTVAPTTVAPTTVAPTTVAPATATPTTVAPQPTQQPTQQPTQQMPTQQQTVAPQTVAPAPQPPSGGRNGSGGGDLFGGF
# notes: also called Proline-Threonine Repetitive Protein; Rv0538
# How the values were obtained:
# [1] = target: T1, collagen III (human placenta); experiment: western blot overlay of rPTRP with ECM protein; same result by ELISA
# [2] = target: T4, human collagen I (human, UniProt P02452 162-1218; P08123 80-1119); experiment: as above
# T4 construct: Chemicon; also called Col I
# [3] = target: T5, collagen II (human cartilage) (human, UniProt P02458 182-1241); experiment: as above
# T5 construct: Chemicon; also called Col II
# [4] = target: vitronectin (human plasma) (human, UniProt P04004 20-478); experiment: as above
# [5] = target: T2, elastin (human lung); experiment: as above
# [6] = target: T6, collagen IV (human placenta) (human, UniProt P02462 28-1669; P08572 26-1712); experiment: as above
# T6 construct: Chemicon; also called Col IV
# [7] = target: T3, fibrinogen (human plasma); experiment: as above
# [8] = target: Thrombospondin (human platelet) (human, UniProt P07996 19-1170); experiment: western blot overlay: rPTRP on the blot, ECM protein 5 µg/ml, anti-ECM antibody
# vitronectin (human plasma), sequence (P04004 20-478 limits assumed): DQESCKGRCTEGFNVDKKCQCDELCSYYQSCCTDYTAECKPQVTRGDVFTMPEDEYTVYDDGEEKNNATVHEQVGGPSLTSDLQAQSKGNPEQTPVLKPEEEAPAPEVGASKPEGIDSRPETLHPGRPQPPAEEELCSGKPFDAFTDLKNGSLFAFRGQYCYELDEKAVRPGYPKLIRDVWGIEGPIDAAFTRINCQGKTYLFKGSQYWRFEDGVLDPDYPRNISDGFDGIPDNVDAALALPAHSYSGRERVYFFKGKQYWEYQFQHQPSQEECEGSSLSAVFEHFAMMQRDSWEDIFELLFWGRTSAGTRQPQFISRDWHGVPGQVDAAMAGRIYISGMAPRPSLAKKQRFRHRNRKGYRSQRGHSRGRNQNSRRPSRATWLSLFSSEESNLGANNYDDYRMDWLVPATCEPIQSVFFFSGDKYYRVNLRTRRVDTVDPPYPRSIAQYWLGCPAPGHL
# T6 sequence (P02462 28-1669, chain 1 of 2): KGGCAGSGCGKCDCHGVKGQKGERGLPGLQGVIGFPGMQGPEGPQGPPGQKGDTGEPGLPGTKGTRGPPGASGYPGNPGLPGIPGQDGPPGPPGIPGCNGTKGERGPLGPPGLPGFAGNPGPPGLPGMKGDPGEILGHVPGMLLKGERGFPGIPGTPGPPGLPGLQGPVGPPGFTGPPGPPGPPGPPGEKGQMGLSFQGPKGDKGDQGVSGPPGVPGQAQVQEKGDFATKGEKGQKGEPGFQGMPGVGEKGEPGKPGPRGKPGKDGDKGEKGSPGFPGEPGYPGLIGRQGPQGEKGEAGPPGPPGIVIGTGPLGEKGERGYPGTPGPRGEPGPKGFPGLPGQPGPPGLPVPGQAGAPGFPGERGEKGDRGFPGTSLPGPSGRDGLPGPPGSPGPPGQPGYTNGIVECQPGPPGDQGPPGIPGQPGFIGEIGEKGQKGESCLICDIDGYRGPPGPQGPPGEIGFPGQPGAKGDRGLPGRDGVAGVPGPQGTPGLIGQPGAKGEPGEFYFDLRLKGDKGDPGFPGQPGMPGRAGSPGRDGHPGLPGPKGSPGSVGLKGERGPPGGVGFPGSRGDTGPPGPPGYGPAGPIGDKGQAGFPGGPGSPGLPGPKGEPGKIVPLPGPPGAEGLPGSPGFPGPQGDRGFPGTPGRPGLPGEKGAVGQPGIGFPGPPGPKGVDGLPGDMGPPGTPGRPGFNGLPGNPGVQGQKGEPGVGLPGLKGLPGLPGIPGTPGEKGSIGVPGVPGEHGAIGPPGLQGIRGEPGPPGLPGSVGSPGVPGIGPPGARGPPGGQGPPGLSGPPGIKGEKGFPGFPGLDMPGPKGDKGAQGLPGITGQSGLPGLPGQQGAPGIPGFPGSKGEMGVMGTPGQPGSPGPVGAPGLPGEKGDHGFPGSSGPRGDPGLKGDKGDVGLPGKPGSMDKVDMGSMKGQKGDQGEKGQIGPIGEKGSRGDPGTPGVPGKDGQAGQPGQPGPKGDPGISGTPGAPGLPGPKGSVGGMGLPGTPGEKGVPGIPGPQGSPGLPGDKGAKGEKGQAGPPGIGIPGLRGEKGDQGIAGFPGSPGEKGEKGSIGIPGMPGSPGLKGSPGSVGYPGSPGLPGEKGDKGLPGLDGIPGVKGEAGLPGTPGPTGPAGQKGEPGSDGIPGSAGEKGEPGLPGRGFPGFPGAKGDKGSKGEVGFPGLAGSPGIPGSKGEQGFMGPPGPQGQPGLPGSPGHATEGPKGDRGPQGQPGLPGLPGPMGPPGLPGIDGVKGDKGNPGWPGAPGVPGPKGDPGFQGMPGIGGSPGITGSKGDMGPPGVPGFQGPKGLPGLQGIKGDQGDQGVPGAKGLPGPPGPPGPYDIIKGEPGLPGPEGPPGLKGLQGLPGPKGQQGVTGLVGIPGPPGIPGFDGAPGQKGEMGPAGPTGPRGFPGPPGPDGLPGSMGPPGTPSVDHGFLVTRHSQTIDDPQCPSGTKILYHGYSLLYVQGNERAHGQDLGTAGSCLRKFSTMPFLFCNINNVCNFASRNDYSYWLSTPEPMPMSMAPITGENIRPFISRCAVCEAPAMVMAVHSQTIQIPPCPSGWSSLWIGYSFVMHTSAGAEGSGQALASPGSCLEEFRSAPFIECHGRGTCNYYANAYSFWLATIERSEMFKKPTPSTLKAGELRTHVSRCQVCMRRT
# T6 sequence (P08572 26-1712, chain 2 of 2): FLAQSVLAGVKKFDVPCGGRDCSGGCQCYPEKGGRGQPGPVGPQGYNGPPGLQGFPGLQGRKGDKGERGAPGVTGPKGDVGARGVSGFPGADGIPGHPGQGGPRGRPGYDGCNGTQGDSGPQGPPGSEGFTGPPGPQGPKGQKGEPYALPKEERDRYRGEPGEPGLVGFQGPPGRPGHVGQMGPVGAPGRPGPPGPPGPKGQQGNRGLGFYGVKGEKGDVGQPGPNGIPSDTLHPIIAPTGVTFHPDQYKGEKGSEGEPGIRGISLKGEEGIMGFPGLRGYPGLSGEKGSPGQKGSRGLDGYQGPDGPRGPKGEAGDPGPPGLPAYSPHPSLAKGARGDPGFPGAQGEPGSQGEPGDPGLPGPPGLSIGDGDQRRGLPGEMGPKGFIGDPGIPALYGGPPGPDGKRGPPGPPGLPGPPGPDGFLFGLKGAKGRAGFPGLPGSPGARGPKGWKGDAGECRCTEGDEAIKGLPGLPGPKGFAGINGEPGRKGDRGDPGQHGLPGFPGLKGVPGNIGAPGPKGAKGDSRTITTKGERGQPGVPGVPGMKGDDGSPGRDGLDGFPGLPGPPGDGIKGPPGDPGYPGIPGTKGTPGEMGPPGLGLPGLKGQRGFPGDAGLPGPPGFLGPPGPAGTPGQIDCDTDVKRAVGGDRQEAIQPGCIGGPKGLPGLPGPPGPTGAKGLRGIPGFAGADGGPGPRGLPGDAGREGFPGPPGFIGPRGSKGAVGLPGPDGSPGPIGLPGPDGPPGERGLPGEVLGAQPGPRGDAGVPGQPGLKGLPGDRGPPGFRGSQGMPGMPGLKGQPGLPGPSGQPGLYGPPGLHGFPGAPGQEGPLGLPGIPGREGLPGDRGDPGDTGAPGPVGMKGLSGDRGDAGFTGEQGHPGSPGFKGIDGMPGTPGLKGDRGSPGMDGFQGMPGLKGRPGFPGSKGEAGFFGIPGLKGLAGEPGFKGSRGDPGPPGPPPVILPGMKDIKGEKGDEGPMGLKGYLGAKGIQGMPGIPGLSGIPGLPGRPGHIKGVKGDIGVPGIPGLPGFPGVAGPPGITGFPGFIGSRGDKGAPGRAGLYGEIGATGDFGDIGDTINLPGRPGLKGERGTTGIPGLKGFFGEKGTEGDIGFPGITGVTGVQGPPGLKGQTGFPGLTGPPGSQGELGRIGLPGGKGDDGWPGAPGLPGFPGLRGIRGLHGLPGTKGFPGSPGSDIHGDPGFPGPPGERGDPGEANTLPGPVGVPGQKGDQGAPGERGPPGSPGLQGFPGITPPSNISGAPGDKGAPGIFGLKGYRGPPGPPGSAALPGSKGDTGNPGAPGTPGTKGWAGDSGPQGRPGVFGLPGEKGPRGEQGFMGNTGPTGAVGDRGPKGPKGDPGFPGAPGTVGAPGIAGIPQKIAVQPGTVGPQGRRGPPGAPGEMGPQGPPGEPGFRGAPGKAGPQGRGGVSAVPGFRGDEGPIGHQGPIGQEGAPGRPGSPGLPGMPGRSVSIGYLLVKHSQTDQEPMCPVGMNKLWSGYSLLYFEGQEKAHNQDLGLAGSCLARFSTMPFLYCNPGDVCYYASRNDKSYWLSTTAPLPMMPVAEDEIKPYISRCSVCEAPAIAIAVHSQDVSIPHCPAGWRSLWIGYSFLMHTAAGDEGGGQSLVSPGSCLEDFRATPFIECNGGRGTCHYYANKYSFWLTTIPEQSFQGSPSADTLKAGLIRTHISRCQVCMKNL
# T5 sequence (P02458 182-1241 limits assumed): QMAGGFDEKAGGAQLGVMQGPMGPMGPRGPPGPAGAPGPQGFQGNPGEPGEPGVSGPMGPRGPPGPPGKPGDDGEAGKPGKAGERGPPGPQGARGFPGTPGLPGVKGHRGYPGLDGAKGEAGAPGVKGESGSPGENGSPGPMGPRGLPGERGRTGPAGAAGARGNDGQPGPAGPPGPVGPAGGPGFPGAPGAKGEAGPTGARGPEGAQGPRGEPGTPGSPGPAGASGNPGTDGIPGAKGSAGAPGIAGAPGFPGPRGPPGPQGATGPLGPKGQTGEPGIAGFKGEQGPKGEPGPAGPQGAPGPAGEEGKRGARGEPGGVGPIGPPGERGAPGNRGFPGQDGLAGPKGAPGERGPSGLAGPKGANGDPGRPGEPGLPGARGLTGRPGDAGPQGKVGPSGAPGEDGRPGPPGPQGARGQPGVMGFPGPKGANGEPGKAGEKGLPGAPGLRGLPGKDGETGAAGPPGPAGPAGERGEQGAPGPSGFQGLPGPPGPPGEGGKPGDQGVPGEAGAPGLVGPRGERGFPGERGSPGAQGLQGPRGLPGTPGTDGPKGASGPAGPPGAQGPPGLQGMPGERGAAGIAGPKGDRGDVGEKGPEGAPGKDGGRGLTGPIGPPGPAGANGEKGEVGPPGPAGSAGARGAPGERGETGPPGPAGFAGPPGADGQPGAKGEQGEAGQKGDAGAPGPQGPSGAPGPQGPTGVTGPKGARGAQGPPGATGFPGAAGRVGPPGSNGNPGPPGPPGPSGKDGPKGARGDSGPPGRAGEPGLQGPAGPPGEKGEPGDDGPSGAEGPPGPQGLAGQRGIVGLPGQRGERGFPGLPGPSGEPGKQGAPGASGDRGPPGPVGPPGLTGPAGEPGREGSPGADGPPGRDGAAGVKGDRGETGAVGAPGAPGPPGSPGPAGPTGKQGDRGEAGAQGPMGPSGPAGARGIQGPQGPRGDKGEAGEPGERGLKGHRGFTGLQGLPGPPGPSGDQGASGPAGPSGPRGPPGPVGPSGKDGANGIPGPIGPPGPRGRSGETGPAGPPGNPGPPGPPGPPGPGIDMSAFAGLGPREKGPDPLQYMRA
binder,measurement,setting,value
B1,binding result,[1],no binding (tested: 5 µg/ml)
same,binding result,[2],no binding (tested: 5 µg/ml)
same,binding result,[3],no binding (tested: 5 µg/ml)
same,binding result,[4],no binding (tested: 5 µg/ml)
same,binding result,[5],no binding (tested: 5 µg/ml)
same,binding result,[6],no binding (tested: 5 µg/ml)
same,binding result,[7],no binding (tested: 5 µg/ml)
same,binding result,[8],binds
